In the test the target is T1, GST-tagged Plk4 (human, UniProt O00444 1-970).
T1 construct: human Plk4, cloned from a cDNA library by PCR into pGEX 4T-1; also called GST-Plk4; source: E. coli BL21, purified (glutathione Sepharose 4B); not shown: GST, N-terminal, kept
T1 sequence (looked up): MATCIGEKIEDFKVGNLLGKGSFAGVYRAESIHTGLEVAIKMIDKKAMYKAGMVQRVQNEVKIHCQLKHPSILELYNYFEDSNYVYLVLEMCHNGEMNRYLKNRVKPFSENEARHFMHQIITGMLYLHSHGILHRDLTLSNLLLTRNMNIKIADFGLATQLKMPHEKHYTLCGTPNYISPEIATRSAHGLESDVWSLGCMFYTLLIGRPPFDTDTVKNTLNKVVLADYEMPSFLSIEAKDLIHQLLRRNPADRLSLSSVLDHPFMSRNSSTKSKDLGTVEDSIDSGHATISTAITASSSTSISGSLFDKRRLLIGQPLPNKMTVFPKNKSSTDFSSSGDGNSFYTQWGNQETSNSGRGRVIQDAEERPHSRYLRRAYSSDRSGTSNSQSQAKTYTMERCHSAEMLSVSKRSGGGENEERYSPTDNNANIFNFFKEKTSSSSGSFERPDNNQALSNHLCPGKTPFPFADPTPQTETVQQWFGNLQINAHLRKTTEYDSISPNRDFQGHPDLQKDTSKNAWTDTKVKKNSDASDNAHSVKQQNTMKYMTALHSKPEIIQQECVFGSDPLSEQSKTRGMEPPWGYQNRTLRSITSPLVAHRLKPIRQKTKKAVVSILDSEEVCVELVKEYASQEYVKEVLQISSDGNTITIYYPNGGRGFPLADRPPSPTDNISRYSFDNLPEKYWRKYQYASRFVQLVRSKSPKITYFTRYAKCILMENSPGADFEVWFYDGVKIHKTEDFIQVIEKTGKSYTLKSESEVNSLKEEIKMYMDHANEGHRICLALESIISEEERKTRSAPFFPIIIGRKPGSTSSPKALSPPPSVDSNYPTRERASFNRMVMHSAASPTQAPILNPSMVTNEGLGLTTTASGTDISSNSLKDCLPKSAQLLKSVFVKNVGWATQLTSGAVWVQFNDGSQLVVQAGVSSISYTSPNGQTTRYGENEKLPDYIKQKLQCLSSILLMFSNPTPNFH
The test can be described thus: pull-down; Sepharose beads coupled with purified GST-Plk4 incubated with purified His-Cdc6; western blot with His antibody. The note with it: both partners purified. For orientation: A western blot detects proteins with antibodies after separation by electrophoresis.

B1: His-tagged Cdc6 (purified) (natural protein, human, UniProt Q99741 1-560, looked up)
chain: MPQTRSQAQATISFPKRKLSRALNKAKNSSDAKLEPTNVQTVTCSPRVKALPLSPRKRLGDDNLCNTPHLPPCSPPKQGKKENGPPHSHTLKGRRLVFDNQLTIKSPSKRELAKVHQNKILSSVRKSQEITTNSEQRCPLKKESACVRLFKQEGTCYQQAKLVLNTAVPDRLPAREREMDVIRNFLREHICGKKAGSLYLSGAPGTGKTACLSRILQDLKKELKGFKTIMLNCMSLRTAQAVFPAIAQEICQEEVSRPAGKDMMRKLEKHMTAEKGPMIVLVLDEMDQLDSKGQDVLYTLFEWPWLSNSHLVLIGIANTLDLTDRILPRLQAREKCKPQLLNFPPYTRNQIVTILQDRLNQVSRDQVLDNAAVQFCARKVSAVSGDVRKALDVCRRAIEIVESDVKSQTILKPLSECKSPSEPLIPKRVGLIHISQVISEVDGNRMTLSQEGAQDSFPLQQKILVCSLMLLIRQLKIKEVTLGKLYEAYSKVCRKQQVAAVDQSECLSLSGLLEARGILGLKRNKETRLTKVFFKIEEKEIEHALKDKALIGNILATGLP
notes: human Cdc6; also called His-Cdc6; source: E. coli BL21, purified (His60 Ni Superflow resin)
As to B1, the binding result was “binds”.

Source of the values: article PMC5414174, “DNA replication licensing factor Cdc6 and Plk4 kinase antagonistically regulate centrosome duplication via Sas-6” (Nature Communications, 2017).
